From patent US20210403586A1, “MUTANT OF RANKL AND PHARMACEUTICAL COMPOSITION COMPRISING SAME FOR PREVENTING OR TREATING OSTEOPOROSIS” (INDUSTRY-ACADEMIC COOPERATION FOUNDATION CHOSUN UNIVERSITY, priority 2018, published 2021)
Entries after “also recorded” stand apart in the source; their conditions may differ.

Legend:
BMMs = assay: Bone-resorption assay (Osteo Assay Surface plates); type: cell-based, mouse; conditions: 6 days, mRANKL-MT3 150 ng/mL
Protocol: We used bone-resorption and F-actin ring formation assays to investigate osteoclast activity. To observe bone resorption in vitro, BMMs were cultured in Corning Osteo Assay Surface 96-well Multiple Well Plates (Sigma) with 30 ng/mL M-CSF and 75 ng/mL sRANKL (soluble RANKL; R&D Systems) or isolated RANKL for 6 days. Then, the plates were washed with pure water. To monitor actin ring formation, BMMs were grown on glass slides. After culture, the cells were fixed with 4% formalin, permeabilized with 0.5% Triton X100 in PBS for 5 min at room temperature, and incubated with 0.5 mg/mL TRITC-labelled phalloidin for 30 min. The cells were then rinsed with PBS. F-actin rings were visualized using a fluorescence ECLIPSE Ts2R microscope (Nikon, Tokyo, Japan).

[1] = test system: bone marrow-derived monocytes (BMMs); assay: Inhibition of wild type RANKL-induced TRAP activity by mutant RANKL in BMMs; type: cell-based, mouse; conditions: BMMs treated with mutant and wild type RANKL; even at a 3:1 wild type:mutant ratio
Protocol: To investigate the optimized inhibitory effect against wild type RANKL, bone marrow-derived monocytes (BMMs) were treated with purified mutant and wild type RANKL (FIG. 2E, F). […] Therefore, we used mRANKL-MT3 for subsequent experiments.
(§1) 4-week old male BALB/c mice were purchased from Orient Bio (Gwangju, Korea) and kept in an animal facility approved by the Chosun University Animal Management Committee (IACUC2017-A0002). After obtaining bone marrow cells from mice, bone marrow mononuclear cells were seeded into 96-well plates (1 Y 10^4 cells/well), and in the absence or presence of various concentrations of compounds, incubated with M-CSF (100 ng/mL) overnight before stimulation with RANKL (50 ng/well). The medium was replaced every other days. 6 days later, the cells were fixed with 4% paraformaldehyde, permeated in 0.1% Triton X-100, and washed with PBS. Then, TRAP activity (Sigma-Aldrich, St. Louis, Mo., USA) staining was performed. TRAP-positive multinuclear cells containing 5 or more nuclei were counted as osteoclasts.

[2] = test system: bone marrow-derived monocytes (BMMs); assay: TRAP analysis of osteoclastogenesis induced by RANKL variants in BMMs; type: cell-based, mouse; conditions: RANKL-treated primary BMM; listed as mtRANKL
Protocol: The RANKL-RANK binding sites are K180, D189, R190, H223, H224, which are conserved between humans and mice. We selected 4 mutant RANKLs to be purified. Their size corresponded to the wild type RANKL (39 kDa) (FIG. 2B). Tartrate-resistant acid […] (TRAP) activity was absent for all RANKLs even at 150 ng/mL (FIG. 2C, D).
as §1
To evaluate the effect of mtRANKL on osteoclastogenesis, TRAP analysis was performed on RANKL-treated primary bone marrow-derived macrophages (BMM) by the method described in Reference Example 2, and the results are shown in FIGS. 4B and 4C.

[3] = test system: ovariectomized (OVX) mice; assay: mtRANKL immunization in ovariectomized (OVX) mice, micro-CT; type: in vivo, mouse; conditions: mice ovariectomized after immunization with mtRANKL vs OVX mice
Protocol: […] As for the X-ray source, the field of view was set to 45 mm, 90 kV and […] (voxel size, 90 μm; scanning time, 14 minutes). CT imaging was performed using a Quantum GX 3D Viewer software. After scanning, image segmentation was performed in Analyze (AnalyzeDirect, Overland Park, Kans., USA). Briefly, the legs were segmented using semi-automatic and manual tools (e.g., object extractor, area expansion, and object separator) using volume editing tools. Then, a 3D rendering of the leg was created, and bone mineral density (BMD), bone volume (BV), bone volume percentage (%), and trabecular thickness were calculated using the ROI tools.
17-week-old […] BALB/c mice were equally divided into a group that was given OVX after immunization with mtRANKL, a group that was given only OVX, and a non-treated negative control group.
The mtRANKL-immunized group was immunized with mtRANKL a total of three times: started with 1st immunization at 52 days, 2nd immunization at 39 days, 3rd immunization at 14 days each before OVX. mtRANKL used in the immunization was injected after mixing with an aluminum hydroxide adjuvant. The amount of mtRANKL was 0.2 mg per mouse.
52 days after 1st immunization, OVX was performed. On day 70 after OVX, serum were collected and tibias were extracted, and then the adhesive soft tissues of tibias were removed. […]

RANK and LGR4 signaling = assay: Western blots of RANK and LGR4 signaling pathway proteins, RANKL variants; type: cell-based, mouse
Protocol: Proteins were separated by SDS-PAGE and electropermeated into a nitrocellulose membrane (Bio-Rad). After blocking the membrane with 5% (weight/volume) skim milk in TBST [10 mM Tris (pH 7.5), 150 mM NaCl, 0.1% (vol/vol) Tween 20], each mouse serum for primary antibody in the blocking solution was examined. The membrane was washed three times with Tris buffered saline. […] peroxidase (HRP)-conjugated secondary antibody was diluted 1:5000 with TBST in 1% (wt/vol) skim milk powder. ECL_system (Amersham Pharmacia Biotech) was used as the membrane.
Primary antibodies: AKT (Cell Signaling Technology, 1:1000), phospho-AKT (Cell Signaling Technology, #9271S, 1:1000), p38 (Cell Signaling Technology, 9212S, 1:1000), phospho-p38 (Cell Signaling Technology, #9211S, 1:1000), ERK (Cell Signaling Technology, 9102S, 1:1000), phospho-ERK (Cell Signaling Technology, #9101S, 1:1000), JNK (Cell Signaling Technology, 9252S, 1:1000), phosphoJNK (Cell Signaling Technology, #9251S, 1:1000), GSK-3β (Cell Signaling Technology, 9315S, 1:1000), phosphoGSK-3β (Cell Signaling Technology, #9336S, 1:1000), Src (Cell Signaling Technology, 2108S, 1:1000), phosphoSrc (Cell Signaling Technology, #2105S, 1:1000), NF-KB p65 (Cell Signaling Technology, #3034, 1:1000), phosphop65 (Cell Signaling Technology, #3031, 1:1000), RANK (Cell Signaling Technology, 4845S, 1:1000), Gaq (Cell Signaling Technology, 14373S, 1:1000), LGR4 (MyBioSource, MBS468030, 1:500), 20112360C-1, and GAPDH (Santa-Cruz Biotechnology, 1:2500).
To investigate the interaction of mRANKL variants and RANK, the co-immunoprecipitation (Co-IP) assays were carried out using mRANKL-WT/mRANKL-MT3 and RANK/LGR4 (FIG. 12A). In addition, wild-type RANKL induced MAPK, AKT, NF-κB p65, and GSK-3 phosphorylation, which is involved in LGR4 signaling (FIG. 12B).

B1: mRANKL-MT3: mouse RANKL mutant: K180R, D189I, R190K, H223F, H224Y; nucleic acid SEQ ID NO: 3 (protein, UniProt O35235 158-316, looked up, variant K180R D189I R190K H223F H224Y)
chain: KPEAQPFAHLTINAASIPSGSHRVTLSSWYHIKGWAKISNMTLSNGKLRVNQDGFYYLYANICFRFYETSGSVPTDYLQLMVYVVKTSIKIPSSHNLMKGGSTKNWSGNSEFHFYSINVGGFFKLRAGEEISIQVSNPSLLDPDQDATYFGAFKVQDID
For B1, the resorption pits (BMMs) was “no resorption pits”, the “inhibitory effect against wild type RANKL (TRAP activity)” value [1] was “the most effective at inhibiting TRAP activity” and the “number of TRAP-positive multinuclear osteoclasts / osteoclast differentiation” value [2] was “did not induce osteoclast differentiation; also recorded: led to a reduction of TRAP-positive cells”. For the same molecule, the BMD of tibias [3] was “significantly higher”, the “trabecular bones of proximal tibias (micro-CT)” value ([3]; day 70 after OVX) was “thicker fibers and higher density than those of OVX mice” and the GSK-3 phosphorylation (RANK and LGR4 signaling; BMMs, Western blot) was “induced”. The “MAPK, AKT, and NF-κB p65 phosphorylation” value (RANK and LGR4 signaling; BMMs, Western blot) was “lower” and the src phosphorylation (RANK and LGR4 signaling; mRANKL-MT3-induced BMMs vs mRANKL-WT induced BMMs) was “significantly lower”.
